From patent publication US20260207759A1, “COMPOSITION OF CD40-BINDING MOLECULE AND PHARMACEUTICAL USE THEREOF” (SUZHOU SUNCADIA BIOPHARMACEUTICALS CO., LTD., priority 2022, published 2026)

Key:
[1] = mouse, in vivo, ip, 10 mg/kg
Procedure: After arrival, the animals were acclimatized for 7 days and randomly grouped. On day 0 of the experiment, each group of mice was intraperitoneally injected with the anti-CD40 antibody at 10 mg/kg. 100-150 μL of blood samples were collected at 15 min, 4 h, and 8 h after administration, and on days 1, 2, 4, 7, 10, and 14 after administration, anticoagulated with 10 μL of EDTA-K2 (0.1 M), and stored on ice. Mouse plasma was assayed by ELISA for antibody concentration at different time points. The assay is specifically as follows: A goat anti-human IgG Fc antibody (Rockland, Cat. #609-101-017) was diluted to 2.5 μg/mL with PBS and added to a 96-well plate at 50 μL/well, and the plate was incubated overnight at 4° C. After three washes with a washing buffer, 50 μL of blocking solution was added to each well, and the plate was incubated at 37° C. for 1 h. The mouse plasma and the standard curve of the test antibody were added, and the plate was incubated at 37° C. for 2 h. After three washes with the washing buffer, anti-hlgG Fab-HRP (Sigma, Cat. #A0293, 1:10,000) was added at 50 μL/well, and the plate was incubated at room temperature for 1 h. The plate was washed three times with the washing buffer. TMB was added at 100 μL/well, and the mixtures were left to react in the dark for 5 min. 0.16 M sulfuric acid was added at 100 μL/well. The OD value at 450 nm was measured with an Envision microplate reader, and the concentrations of CD40 antagonistic antibodies were calculated.

[2] = molecular target: CD40 (Homo sapiens, UniProt P25942); test: Inhibition of CD40 reporter gene cell activity (HEK-Blue CD40L cells), humanized antibodies; assay type: cell-based; set-up: host or cells: HEK-Blue CD40L cells
Procedure: HEK-Blue CD40L cells were purchased from Invivogen (Cat. #hkb-cd40). The cells were stably transfected with the human CD40 gene and the NF-kB-mediated SEAP genome. The activation level of the CD40 signaling pathway can be characterized by measuring the amount of secreted SEAP in the supernatant using QUANTI-Blue, the substrate of SEAP. In the assays, the inhibitory effects of the CD40 antagonistic antibodies on the CD40L-induced HEK-Blue CD40L cell activation were measured, and the in vitro cell activity of the CD40 antagonistic antibodies was assessed based on IC50.
HEK-Blue CD40L cells were cultured in a DMEM medium containing 10% FBS, 100 μg/mL Normocin, 100 μg/mL Zeocin, and 30 µg/mL Blasticidin, with 2-3 passages a week. HEK-Blue CD40L cells were plated at 5E4 cells/well into a 96-well cell culture plate (the medium was DMEM containing 10% FBS and 100 μg/mL Normocin) and incubated overnight. […] CD40L-his (R&D, 2706-CL-025) and anti-His antibody (R&D, MAB050-500) were added, and the plate was incubated overnight. After cell centrifugation, 20 μL of the cell supernatant was transferred to a new 96-well white plate, and 180 μL of QUANTI-Blue substrate solution was added. […] The absorbance at 620 nm was measured with an Envision microplate reader, and IC50 values were calculated and used to assess the in vitro cell activity of the CD40 antagonistic antibodies.

Sequence of CD40 (P25942 21-277): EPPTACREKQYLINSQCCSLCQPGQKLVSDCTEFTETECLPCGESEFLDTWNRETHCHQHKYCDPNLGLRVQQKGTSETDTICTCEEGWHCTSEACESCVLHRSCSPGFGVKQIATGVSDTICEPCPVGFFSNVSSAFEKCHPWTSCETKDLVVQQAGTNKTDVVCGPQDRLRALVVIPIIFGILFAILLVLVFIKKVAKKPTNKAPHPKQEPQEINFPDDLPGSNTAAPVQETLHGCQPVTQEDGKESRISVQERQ

## CFZ533: anti-CD40 antagonistic antibody CFZ533 (i.e., iscalimab), positive control, variable regions from U.S. Pat. No. 8,277,810B
[1]
  AUC(0-d14)((h) * (mg/L)): 12655 (h) * (mg/L)
  C max: 75.95 µg/mL
  T1/2: 214.8 h
[2]; Experiment 1
  IC50: 0.36 nM
[2]; Experiment 2
  IC50: 0.35 nM
